Our source for the screen value values is article PMC12102759 (2025).

The labels stand for the following.
B1: AXIN1 peptide 235-250 (Axin-1), 16-mer library wild type / PP2A B56 (PPP2R5A B56 domain, residues 1-486) (parent complex)
chain 1: SGYLPTLNEDEEWKAD
chain 2: not shown

In the assay the parent is B1. Put plainly: proteomic peptide phage display deep mutational scan (ProP-PD DMS): M13 P8 16-mer library selected against immobilised GST-tagged bait for four days (rounds), NGS of the eluted pools per day and pseudo-replica; bait immobilised on MaxiSorp plates (10 µg), library pre-cleared on GST, 2 h binding at 4 °C, five washes; one round per day, days 1-4; value from days 2 and 3.
With chain 1 D16I, the screen value was 0.000497 average fractional NGS count over selection days 2 and 3 (reads of this peptide / all reads for the bait, averaged over ….
The value for chain 1 D16H was 0.0014 average fractional NGS count over selection days 2 and 3 (reads of this peptide / all reads for the bait, averaged over …; that for chain 1 D16M was 0.00821 average fractional NGS count over selection days 2 and 3 (reads of this peptide / all reads for the bait, averaged over …; that for chain 1 D16Y was 0.00243 average fractional NGS count over selection days 2 and 3 (reads of this peptide / all reads for the bait, averaged over ….
Take chain 1 D16W: the screen value is 0.000506 average fractional NGS count over selection days 2 and 3 (reads of this peptide / all reads for the bait, averaged over ….
The value for chain 1 D16L was 0.000211 average fractional NGS count over selection days 2 and 3 (reads of this peptide / all reads for the bait, averaged over …; that for chain 1 D16F was 0.00025 average fractional NGS count over selection days 2 and 3 (reads of this peptide / all reads for the bait, averaged over …; that for chain 1 D16G was 0.000202 average fractional NGS count over selection days 2 and 3 (reads of this peptide / all reads for the bait, averaged over ….
chain 1 L7I: the screen value was 0.000349 average fractional NGS count over selection days 2 and 3 (reads of this peptide / all reads for the bait, averaged over ….
The result for chain 1 E12Q reads 0.000677 average fractional NGS count over selection days 2 and 3 (reads of this peptide / all reads for the bait, averaged over …; that for chain 1 E12M, 0.000888 average fractional NGS count over selection days 2 and 3 (reads of this peptide / all reads for the bait, averaged over ….
Take chain 1 E12A: the screen value is 0.000112 average fractional NGS count over selection days 2 and 3 (reads of this peptide / all reads for the bait, averaged over ….
The value for chain 1 E12Y was 0.000809 average fractional NGS count over selection days 2 and 3 (reads of this peptide / all reads for the bait, averaged over ….
Consider chain 1 E12L, for which the screen value is 0.00045 average fractional NGS count over selection days 2 and 3 (reads of this peptide / all reads for the bait, averaged over ….
The result for chain 1 E12S reads 0.000153 average fractional NGS count over selection days 2 and 3 (reads of this peptide / all reads for the bait, averaged over ….
The value for chain 1 E12P was 0.000257 average fractional NGS count over selection days 2 and 3 (reads of this peptide / all reads for the bait, averaged over ….
Turning to chain 1 E12V, the screen value was 0.000291 average fractional NGS count over selection days 2 and 3 (reads of this peptide / all reads for the bait, averaged over ….
The result for chain 1 E12F reads 0.000153 average fractional NGS count over selection days 2 and 3 (reads of this peptide / all reads for the bait, averaged over …; that for chain 1 K14T, 0.000943 average fractional NGS count over selection days 2 and 3 (reads of this peptide / all reads for the bait, averaged over …; that for chain 1 K14R, 0.000196 average fractional NGS count over selection days 2 and 3 (reads of this peptide / all reads for the bait, averaged over ….
On to chain 1 K14N, for which the screen value is 0.000231 average fractional NGS count over selection days 2 and 3 (reads of this peptide / all reads for the bait, averaged over ….
The result for chain 1 K14D reads 0.000812 average fractional NGS count over selection days 2 and 3 (reads of this peptide / all reads for the bait, averaged over …; that for chain 1 K14Q, 0.00109 average fractional NGS count over selection days 2 and 3 (reads of this peptide / all reads for the bait, averaged over ….
For chain 1 K14Y, the screen value is 0.00389 average fractional NGS count over selection days 2 and 3 (reads of this peptide / all reads for the bait, averaged over ….
As to chain 1 K14H, the screen value is 0.00281 average fractional NGS count over selection days 2 and 3 (reads of this peptide / all reads for the bait, averaged over ….
On to chain 1 K14M, for which the screen value is 0.000958 average fractional NGS count over selection days 2 and 3 (reads of this peptide / all reads for the bait, averaged over ….
The value for chain 1 K14F was 0.00121 average fractional NGS count over selection days 2 and 3 (reads of this peptide / all reads for the bait, averaged over ….
The result for chain 1 K14P reads 0.000647 average fractional NGS count over selection days 2 and 3 (reads of this peptide / all reads for the bait, averaged over …; that for chain 1 K14G, 0.00056 average fractional NGS count over selection days 2 and 3 (reads of this peptide / all reads for the bait, averaged over ….
Regarding chain 1 K14W, the screen value is 0.00219 average fractional NGS count over selection days 2 and 3 (reads of this peptide / all reads for the bait, averaged over ….
chain 1 K14L: the screen value was 0.00437 average fractional NGS count over selection days 2 and 3 (reads of this peptide / all reads for the bait, averaged over ….
The value for chain 1 K14A was 0.000829 average fractional NGS count over selection days 2 and 3 (reads of this peptide / all reads for the bait, averaged over …; that for chain 1 E11F was 0.00161 average fractional NGS count over selection days 2 and 3 (reads of this peptide / all reads for the bait, averaged over …; that for chain 1 E11Y was 0.000271 average fractional NGS count over selection days 2 and 3 (reads of this peptide / all reads for the bait, averaged over ….
For chain 1 E11V, the screen value was 0.000234 average fractional NGS count over selection days 2 and 3 (reads of this peptide / all reads for the bait, averaged over ….
On to chain 1 E11Q, for which the screen value was 0.00516 average fractional NGS count over selection days 2 and 3 (reads of this peptide / all reads for the bait, averaged over ….
The value for chain 1 E11T was 0.0139 average fractional NGS count over selection days 2 and 3 (reads of this peptide / all reads for the bait, averaged over …; that for chain 1 E11A was 0.000236 average fractional NGS count over selection days 2 and 3 (reads of this peptide / all reads for the bait, averaged over ….
Take chain 1 E11K: the screen value is 0.000202 average fractional NGS count over selection days 2 and 3 (reads of this peptide / all reads for the bait, averaged over ….
The result for chain 1 E11W reads 0.000117 average fractional NGS count over selection days 2 and 3 (reads of this peptide / all reads for the bait, averaged over …; that for chain 1 E11R, 0.000311 average fractional NGS count over selection days 2 and 3 (reads of this peptide / all reads for the bait, averaged over ….
Regarding chain 1 E11N, the screen value is 0.00018 average fractional NGS count over selection days 2 and 3 (reads of this peptide / all reads for the bait, averaged over ….
Take chain 1 E11S: the screen value was 0.000584 average fractional NGS count over selection days 2 and 3 (reads of this peptide / all reads for the bait, averaged over ….
chain 1 D10V: the screen value was 0.00335 average fractional NGS count over selection days 2 and 3 (reads of this peptide / all reads for the bait, averaged over ….
The value for chain 1 D10H was 0.000355 average fractional NGS count over selection days 2 and 3 (reads of this peptide / all reads for the bait, averaged over …; that for chain 1 D10M was 0.00104 average fractional NGS count over selection days 2 and 3 (reads of this peptide / all reads for the bait, averaged over ….
Turning to chain 1 D10L, the screen value is 0.000595 average fractional NGS count over selection days 2 and 3 (reads of this peptide / all reads for the bait, averaged over ….
The value for chain 1 D10W was 0.0017 average fractional NGS count over selection days 2 and 3 (reads of this peptide / all reads for the bait, averaged over ….
Take chain 1 D10A: the screen value is 0.00348 average fractional NGS count over selection days 2 and 3 (reads of this peptide / all reads for the bait, averaged over ….
As for chain 1 D10Q, the screen value is 0.00101 average fractional NGS count over selection days 2 and 3 (reads of this peptide / all reads for the bait, averaged over ….
Turning to chain 1 D10N, the screen value is 0.000347 average fractional NGS count over selection days 2 and 3 (reads of this peptide / all reads for the bait, averaged over ….
The value for chain 1 D10T was 0.000731 average fractional NGS count over selection days 2 and 3 (reads of this peptide / all reads for the bait, averaged over …; that for chain 1 D10F was 0.000124 average fractional NGS count over selection days 2 and 3 (reads of this peptide / all reads for the bait, averaged over …; that for chain 1 T6V was 0.00125 average fractional NGS count over selection days 2 and 3 (reads of this peptide / all reads for the bait, averaged over ….
For the variant chain 1 T6I, the screen value is 0.000627 average fractional NGS count over selection days 2 and 3 (reads of this peptide / all reads for the bait, averaged over ….
The value for chain 1 T6P was 0.000157 average fractional NGS count over selection days 2 and 3 (reads of this peptide / all reads for the bait, averaged over …; that for chain 1 T6A was 0.000414 average fractional NGS count over selection days 2 and 3 (reads of this peptide / all reads for the bait, averaged over …; that for chain 1 A15P was 0.00074 average fractional NGS count over selection days 2 and 3 (reads of this peptide / all reads for the bait, averaged over ….
chain 1 A15F: the screen value was 0.000658 average fractional NGS count over selection days 2 and 3 (reads of this peptide / all reads for the bait, averaged over ….
The value for chain 1 A15N was 0.000145 average fractional NGS count over selection days 2 and 3 (reads of this peptide / all reads for the bait, averaged over …; that for chain 1 A15L was 0.00106 average fractional NGS count over selection days 2 and 3 (reads of this peptide / all reads for the bait, averaged over …; that for chain 1 A15M was 0.00211 average fractional NGS count over selection days 2 and 3 (reads of this peptide / all reads for the bait, averaged over ….
With chain 1 A15W, the screen value is 0.000559 average fractional NGS count over selection days 2 and 3 (reads of this peptide / all reads for the bait, averaged over ….
For chain 1 A15Q, the screen value is 0.000281 average fractional NGS count over selection days 2 and 3 (reads of this peptide / all reads for the bait, averaged over ….
For chain 1 A15T, the screen value was 0.000294 average fractional NGS count over selection days 2 and 3 (reads of this peptide / all reads for the bait, averaged over ….
With chain 1 A15G, the screen value is 0.000885 average fractional NGS count over selection days 2 and 3 (reads of this peptide / all reads for the bait, averaged over ….
In the case of chain 1 A15V, the screen value was 0.00273 average fractional NGS count over selection days 2 and 3 (reads of this peptide / all reads for the bait, averaged over ….
For chain 1 A15S, the screen value was 0.000672 average fractional NGS count over selection days 2 and 3 (reads of this peptide / all reads for the bait, averaged over ….
For the variant chain 1 A15Y, the screen value is 0.000791 average fractional NGS count over selection days 2 and 3 (reads of this peptide / all reads for the bait, averaged over ….
The result for chain 1 P5A reads 0.00054 average fractional NGS count over selection days 2 and 3 (reads of this peptide / all reads for the bait, averaged over …; that for chain 1 P5Y, 0.000222 average fractional NGS count over selection days 2 and 3 (reads of this peptide / all reads for the bait, averaged over …; that for chain 1 W13Y, 0.000277 average fractional NGS count over selection days 2 and 3 (reads of this peptide / all reads for the bait, averaged over ….
With chain 1 W13F, the screen value is 0.000389 average fractional NGS count over selection days 2 and 3 (reads of this peptide / all reads for the bait, averaged over ….
With chain 1 W13M, the screen value is 0.000138 average fractional NGS count over selection days 2 and 3 (reads of this peptide / all reads for the bait, averaged over ….
The result for chain 1 W13L reads 0.000454 average fractional NGS count over selection days 2 and 3 (reads of this peptide / all reads for the bait, averaged over ….
